This is an account of results in patent US8409577 (EMERGENT PRODUCT DEVELOPMENT SEATTLE, dated 2013).

This experiment concerns the target T1, CD20 (human, UniProt P11836 1-297).
T1 construct: whole, on cells; target on WIL2-S (WIL-2S), Ramos and BJAB cells; also called human CD20
T1 sequence (looked up): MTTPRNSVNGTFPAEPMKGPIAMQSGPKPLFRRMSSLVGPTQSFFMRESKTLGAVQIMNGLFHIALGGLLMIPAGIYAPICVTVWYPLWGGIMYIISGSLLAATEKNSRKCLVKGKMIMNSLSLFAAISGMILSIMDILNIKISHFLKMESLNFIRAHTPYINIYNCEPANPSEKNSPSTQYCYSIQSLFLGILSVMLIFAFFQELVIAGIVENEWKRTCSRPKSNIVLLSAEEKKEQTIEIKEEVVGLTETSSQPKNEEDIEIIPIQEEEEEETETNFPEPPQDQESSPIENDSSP
Briefly: flow cytometry: 2e12 HL SMIP on WIL-2S cells (CD20), then CD28mIgG 5 ug/ml and FITC anti-mouse 1:100. On the procedure: In this case, the fusion proteins were first bound to WIL-2S CD20 expressing cells, and binding was then detected with CD28mIgG (5 µg/ml) and FITC anti-mouse reagent at 1:100.

B1: 2E12IgG-VHVL SMIP (Fc fusion)
chain: VQVQLKESGPGLVAPSQSLSITCTVSGFSLTGYGVNWVRQPPGKGLEWLGMIWGDGSTDYNSALKSRLSITKDNSKSQVFLKMNSLQTDDTARYYCARDGYSNFHYYVMDYWGQGTSVTVSSGGGGSGGGGSGGGGSGGGGSDIVLTQSPASLAVSLGQRATISCRASESVEYYVTSLMQWYQQKPGQPPKLLISAASNVESGVPARFSGSGSGTDFSLNIHPVEEDDIAMYFCQQSRKVPWTFGGGTKLEIKR
notes: also called 2e12 VHVL SMIP; 2e12 HL SMIP; not shown: IgG hinge-CH2-CH3 of the SMIP, not described
For B1, the binding result is reported as “no binding (tested: about 5 ug/mL (read off the axis))”.
